The record followed here is paper PMC6324938 (Developmental cell, 2018).

The target in the assay is T1, Gdi1 (GDP dissociation inhibitor) (UniProt P39958 1-451).
T1 sequence (looked up): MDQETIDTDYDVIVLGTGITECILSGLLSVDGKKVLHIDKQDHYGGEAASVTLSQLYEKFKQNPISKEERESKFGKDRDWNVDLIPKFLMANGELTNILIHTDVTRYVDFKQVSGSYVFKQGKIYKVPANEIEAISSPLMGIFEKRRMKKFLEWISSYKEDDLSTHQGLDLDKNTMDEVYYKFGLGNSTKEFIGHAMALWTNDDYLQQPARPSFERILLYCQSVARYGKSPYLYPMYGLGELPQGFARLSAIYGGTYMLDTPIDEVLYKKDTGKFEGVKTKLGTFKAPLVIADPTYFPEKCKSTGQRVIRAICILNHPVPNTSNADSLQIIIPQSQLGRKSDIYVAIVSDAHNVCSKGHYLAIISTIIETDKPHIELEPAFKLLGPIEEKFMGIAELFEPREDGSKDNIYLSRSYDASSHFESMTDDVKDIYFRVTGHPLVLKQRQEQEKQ
Kind of assay: SEC. In general terms: SEC sorts molecules by how far they enter the pores of the column.

B1: prenylated Ypt31 (mantGDP-labeled, of the Rab/GDI substrate) (natural protein, S. cerevisiae, UniProt P38555 1-223, looked up)
chain: MSSEDYGYDYDLLFKIVLIGDSGVGKSNLLSRFTKNEFNMDSKSTIGVEFATRTLEIDGKRIKAQIWDTAGQERYRAITSAYYRGAVGALIVYDISKSSSYENCNHWLSELRENADDNVAVGLIGNKSDLAHLRAVPTEESKTFAQENQLLFTETSALNSENVDKAFEELINTIYQKVSKHQMDLGDSSANGNANGASAPNGPTISLTPTPNENKKANGNNCC
modifications: prenylated (geranylgeranyl) at the C-terminus; loaded with mantGDP
B1: the binding result is given as “binds”.

B2: prenylated Ypt1 (mantGDP-labeled, of the Rab/GDI substrate) (natural protein)
chain: not shown
modifications: prenylated (geranylgeranyl) at the C-terminus; loaded with mantGDP
Take B2: the binding result is listed as “binds”.
